These results are taken from PMC12678531, “Cytosolic TOP3α facilitates mitochondrial DNA sensing by cGAS”.

In the data set the target is cGAS (Homo sapiens, UniProt Q8N884 1-522). Briefly: EMSA; 300 pmol protein, 50 pmol DNA in 10 uL; EMSA: Beyotime GS005 binding buffer, 37 C, 15 min, 10 uL, 6% PAGE in TBE at 4 C; extract pull-down: 50 mM Tris-HCl pH 7.5, 150 mM NaCl, 0.025% digitonin. The settings on record: protein: recombinant; tags: C-terminal LE-6xHis; chain copies: 2; label: none for EMSA (GelRed stain); blunt.
Sequence of cGAS (Q8N884 whole entry): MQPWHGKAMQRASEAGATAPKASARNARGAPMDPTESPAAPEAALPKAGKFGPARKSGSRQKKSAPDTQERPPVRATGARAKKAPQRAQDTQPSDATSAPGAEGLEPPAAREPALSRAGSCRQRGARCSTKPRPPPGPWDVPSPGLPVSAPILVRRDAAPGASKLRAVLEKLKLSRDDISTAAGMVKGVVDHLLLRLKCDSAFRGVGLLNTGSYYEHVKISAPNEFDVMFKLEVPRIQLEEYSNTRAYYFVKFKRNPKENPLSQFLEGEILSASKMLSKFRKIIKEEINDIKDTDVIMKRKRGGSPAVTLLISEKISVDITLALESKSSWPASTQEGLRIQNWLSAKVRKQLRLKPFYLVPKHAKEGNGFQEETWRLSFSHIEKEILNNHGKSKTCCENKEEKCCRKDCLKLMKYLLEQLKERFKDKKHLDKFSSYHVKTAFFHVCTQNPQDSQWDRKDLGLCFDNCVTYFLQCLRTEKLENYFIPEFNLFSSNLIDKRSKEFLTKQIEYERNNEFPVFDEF

B1: DNA2 (30 bp) (dsDNA)
DNA 1: CCGAAACCAGACGAGCTACCTAAGAACAGC
DNA 2: GCTGTTCTTAGGTAGCTCGTCTGGTTTCGG
Regarding B1, the binding result is recorded as “binds”.
